According to patent publication US20210246166A1 (Bayer, published 2021):
Numbered stars: 1 amine (or outer) side, 2 acyl side, 3 side chain; on linkers, the order of the positions; unused ones are H or OH. Bridge positions count the residues as written; N and C are the ends. Square brackets hold non-standard residues; d marks the D form. Primed or numbered codes have the meaning given here. Ends that are not written are not given here. * marks the point of attachment. Leu(4-F)″ = 4-fluoro-L-leucine, CC(C)(F)C[C@H](N[*:1])C(=O)[*:2]; Piperidin‑4‑ylacetic acid = O=C(CC1CCNCC1)*; NMeI = CC[C@H](C)[C@H](NC)C(=O)O; tBuAla = CC(C)(C)C[C@H](N)C(=O)O; Chg = N[C@H](C(=O)O)C1CCCCC1; NMePro = CN1CCC[C@H]1C(=O)*; NMeC = CN[C@@H](CS)C(=O)O; NMeA = CN[C@@H](C)C(=O)O

T1: recombinant rat MASP1 active protease (amino acids 302-704, C-terminal His Tag) (rat, UniProt Q8CHN8 302-704)
T1 sequence: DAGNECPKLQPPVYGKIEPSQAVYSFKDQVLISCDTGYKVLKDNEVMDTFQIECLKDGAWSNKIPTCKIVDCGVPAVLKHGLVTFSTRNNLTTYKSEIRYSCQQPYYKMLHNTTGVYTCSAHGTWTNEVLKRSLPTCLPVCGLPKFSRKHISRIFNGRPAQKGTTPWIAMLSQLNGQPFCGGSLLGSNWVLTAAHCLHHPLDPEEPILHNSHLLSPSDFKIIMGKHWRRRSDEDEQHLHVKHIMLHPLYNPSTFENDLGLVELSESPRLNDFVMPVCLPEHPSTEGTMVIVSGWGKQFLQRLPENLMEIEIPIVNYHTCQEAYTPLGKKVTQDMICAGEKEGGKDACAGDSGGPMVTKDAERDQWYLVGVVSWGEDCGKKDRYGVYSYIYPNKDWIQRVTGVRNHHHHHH

B1: Example 250: ((N-Me)P)-IC+SRS-((tBu)A)-PPIC+IPD-NH2 (peptide)
peptide: [NMePro]ICSRS[tBuAla]PPICIPD-NH2
modifications: disulfide 3-11
SMILES: CC[C@H](C)[C@H](NC(=O)[C@@H]1CCCN1C)C(=O)N[C@H]1CSSC[C@@H](C(=O)N[C@H](C(=O)N2CCC[C@H]2C(=O)N[C@@H](CC(=O)O)C(N)=O)[C@@H](C)CC)NC(=O)[C@H]([C@@H](C)CC)NC(=O)[C@@H]2CCCN2C(=O)[C@@H]2CCCN2C(=O)[C@H](CC(C)(C)C)NC(=O)[C@H](CO)NC(=O)[C@H](CCCNC(=N)N)NC(=O)[C@H](CO)NC1=O
B2: Example 253: ((N-Me)A)-IC+SRS-((tBu)A)-PPIC+IPD-NH2 (peptide)
peptide: [NMeA]ICSRS[tBuAla]PPICIPD-NH2
modifications: disulfide 3-11; N-terminus assumed
SMILES: CC[C@H](C)[C@H](NC(=O)[C@H](C)NC)C(=O)N[C@H]1CSSC[C@@H](C(=O)N[C@H](C(=O)N2CCC[C@H]2C(=O)N[C@@H](CC(=O)O)C(N)=O)[C@@H](C)CC)NC(=O)[C@H]([C@@H](C)CC)NC(=O)[C@@H]2CCCN2C(=O)[C@@H]2CCCN2C(=O)[C@H](CC(C)(C)C)NC(=O)[C@H](CO)NC(=O)[C@H](CCCNC(=N)N)NC(=O)[C@H](CO)NC1=O
B3: Example 260: A-((N-Me)I)-C+SRSLPPIC+IPD-NH2 (peptide)
peptide: A[NMeI]CSRSLPPICIPD-NH2
modifications: disulfide 3-11; N-terminus assumed
SMILES: CC[C@H](C)[C@@H]1NC(=O)[C@@H]2CCCN2C(=O)[C@@H]2CCCN2C(=O)[C@H](CC(C)C)NC(=O)[C@H](CO)NC(=O)[C@H](CCCNC(=N)N)NC(=O)[C@H](CO)NC(=O)[C@@H](NC(=O)[C@H]([C@@H](C)CC)N(C)C(=O)[C@H](C)N)CSSC[C@@H](C(=O)N[C@H](C(=O)N2CCC[C@H]2C(=O)N[C@@H](CC(=O)O)C(N)=O)[C@@H](C)CC)NC1=O
B4: Example 254: AIC+SRSLPP-(Chg)-C+IPD-NH2 (peptide)
peptide: AICSRSLPP[Chg]CIPD-NH2
modifications: disulfide 3-11; N-terminus assumed
SMILES: CC[C@H](C)[C@H](NC(=O)[C@H](C)N)C(=O)N[C@H]1CSSC[C@@H](C(=O)N[C@H](C(=O)N2CCC[C@H]2C(=O)N[C@@H](CC(=O)O)C(N)=O)[C@@H](C)CC)NC(=O)[C@H](C2CCCCC2)NC(=O)[C@@H]2CCCN2C(=O)[C@@H]2CCCN2C(=O)[C@H](CC(C)C)NC(=O)[C@H](CO)NC(=O)[C@H](CCCNC(=N)N)NC(=O)[C@H](CO)NC1=O
B5: Example 248: AIC+SRS-((4-Fluoro)L)-PPIC+IPD-NH2 (peptide)
peptide: AICSRS[Leu(4-F)″]PPICIPD-NH2
modifications: disulfide 3-11; N-terminus assumed
SMILES: CC[C@H](C)[C@H](NC(=O)[C@H](C)N)C(=O)N[C@H]1CSSC[C@@H](C(=O)N[C@H](C(=O)N2CCC[C@H]2C(=O)N[C@@H](CC(=O)O)C(N)=O)[C@@H](C)CC)NC(=O)[C@H]([C@@H](C)CC)NC(=O)[C@@H]2CCCN2C(=O)[C@@H]2CCCN2C(=O)[C@H](CC(C)(C)F)NC(=O)[C@H](CO)NC(=O)[C@H](CCCNC(=N)N)NC(=O)[C@H](CO)NC1=O
B6: Example 259: (Piperidin-4-ylacetic acid)-IC+SRS-((tBu)A)-PPI-((N-Me)C)+I-NH2 (peptide)
peptide: {Piperidin‑4‑ylacetic acid}-ICSRS[tBuAla]PPI[NMeC]I-NH2
modifications: disulfide 2-10
SMILES: CC[C@H](C)[C@H](NC(=O)[C@@H]1CSSC[C@H](NC(=O)[C@@H](NC(=O)CC2CCNCC2)[C@@H](C)CC)C(=O)N[C@@H](CO)C(=O)N[C@@H](CCCNC(=N)N)C(=O)N[C@@H](CO)C(=O)N[C@@H](CC(C)(C)C)C(=O)N2CCC[C@H]2C(=O)N2CCC[C@H]2C(=O)N[C@@H]([C@@H](C)CC)C(=O)N1C)C(N)=O

target: T1, recombinant rat MASP1 active protease …; assay: cell-based or functional assay

Binder	rat MASP1 IC50 [nM]
B1	77
B2	130
B3	160
B4	320
B5	260
B6	27
